According to publication PMC11310688:

What was measured:
[1] = molecular target: dynactin subunit p150^Glued, Q14203-1; assay: co-immunoprecipitation (IP: anti-Halo) with immunoblot quantification; details: HEK293 cell lysate, bars mean ± SEM, parent: est. 1.0, read off a plot
[2] = molecular target: kinesin heavy chain (KHC) (UniProt P33176); assay: as above; details: HEK293 cell lysate; n = 5 independent experiments; bars mean ± SEM; parent: est. 1.0; read off a plot
[3] = molecular target: Halo-HA-Nesp2-SR48∼56 (Nesprin-2 spectrin repeats 48-56) (mouse) (UniProt Q6ZWQ0)

Substance | velocity of rapalog-induced peroxisome transport by Nesp2-SR48ΔKASH-FRB (5655-6767aa) along microtubules in MRC5 cells, both directions [3] [µm/s] | other results
Halo-HA-Nesp2-SR48-KASH (Nesprin-2 SR48-56 and the KASH domain) (from UniProt Q6ZWQ0-1) ALALE>AAAAA; SLFTE>AAAAA; RLARE>AAAAA; AAWLG>VVWLG | – | ratio to parent ([1]; n = 5 independent experiments): 0.19; ratio to parent [2]: 0.22
kinesin heavy chain (KHC) (from UniProt P33176 1-963) (natural protein) | 1 | –
Halo-HA-Nesp2-SR48-KASH (Nesprin-2 SR48-56 and the KASH domain) (from UniProt Q6ZWQ0-1) ALALE>AAAAA; SLFTE>AAAAA; RLARE>AAAAA; LEWD>LEAA; AAWLG>VVWLG | – | ratio to parent ([1]; 3 data points drawn for this bar): 0.08
Bicaudal D2 (BicD2) (from UniProt Q8TD16 1-824) (natural protein) | 1 | –
dynactin subunit p150^Glued (from UniProt Q14203-1 1-1278) (natural protein) | 1 | –
Halo-HA-Nesp2-SR48-KASH (Nesprin-2 SR48-56 and the KASH domain) (from UniProt Q6ZWQ0-1) LEWD>LEAA | – | ratio to parent ([1]; n = 5 independent experiments): 0.98
dynein heavy chain (DHC) (from UniProt Q14204 1-4646) (natural protein) | 1 | –
